One data set deals with T1, DnaD (Bacillus subtilis 168CA, UniProt P39787 1-232).
T1 sequence: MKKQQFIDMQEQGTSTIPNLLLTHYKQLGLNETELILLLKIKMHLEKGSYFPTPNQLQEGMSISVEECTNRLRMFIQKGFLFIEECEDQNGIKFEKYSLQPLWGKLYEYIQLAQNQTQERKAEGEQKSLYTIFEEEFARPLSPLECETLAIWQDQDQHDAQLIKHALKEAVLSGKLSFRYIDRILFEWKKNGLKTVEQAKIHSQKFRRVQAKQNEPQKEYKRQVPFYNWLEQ
In words: fluorescence polarisation; FP: 10 mM HEPES-KOH pH 7.5, 1 mM Mg acetate, 100 mM K glutamate, 20 C, 1.875 nM DNA, DnaD up to 500 nM, 10 min; Bpa crosslinking conditions not in material. The note with it: protein: recombinant; tags: His14-SUMO tag removed; chain copies: 4; label: fluorescein 5'. For orientation: In fluorescence polarisation assays a small probe gives low polarisation when free and higher when bound to something large.

The target in the next data set is T2, DnaD1-224 (Bacillus subtilis 168CA, UniProt P39787 1-224).
T2 sequence: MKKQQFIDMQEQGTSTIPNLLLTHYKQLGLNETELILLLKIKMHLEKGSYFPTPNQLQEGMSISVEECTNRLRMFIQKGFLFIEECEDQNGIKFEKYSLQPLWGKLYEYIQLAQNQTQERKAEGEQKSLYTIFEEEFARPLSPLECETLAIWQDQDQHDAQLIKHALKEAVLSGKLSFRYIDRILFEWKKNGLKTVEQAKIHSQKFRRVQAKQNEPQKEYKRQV
The description is as above. Conditions: protein: recombinant; tags: His14-SUMO tag removed; chain copies: 4; label: fluorescein 5'.

Another data set deals with T3, DnaD1-205 (Bacillus subtilis 168CA, UniProt P39787 1-205).
T3 sequence: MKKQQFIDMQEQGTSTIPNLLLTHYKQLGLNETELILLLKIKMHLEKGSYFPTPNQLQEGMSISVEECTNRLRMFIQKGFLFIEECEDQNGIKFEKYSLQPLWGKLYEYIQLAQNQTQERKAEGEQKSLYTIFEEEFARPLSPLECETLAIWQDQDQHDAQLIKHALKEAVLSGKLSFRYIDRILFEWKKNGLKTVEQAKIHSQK
The data set is described as above. The note with it: protein: recombinant; tags: His14-SUMO tag removed; chain copies: 4; label: fluorescein 5'.

Data set [1] deals with the molecule itself. In words: SEC-MALS; 20°C; 40 mM Tris-HCl pH 8, 500 mM NaCl, 1 mM EDTA, 20 mM imidazole, 2.5% v/v glycerol; 100 μl injected. For orientation: Size exclusion chromatography separates by hydrodynamic size, large species first.
A further data set concerns the target T4, DnaD L22A (Bacillus subtilis 168CA, UniProt P39787 1-232, L22A).
T4 sequence: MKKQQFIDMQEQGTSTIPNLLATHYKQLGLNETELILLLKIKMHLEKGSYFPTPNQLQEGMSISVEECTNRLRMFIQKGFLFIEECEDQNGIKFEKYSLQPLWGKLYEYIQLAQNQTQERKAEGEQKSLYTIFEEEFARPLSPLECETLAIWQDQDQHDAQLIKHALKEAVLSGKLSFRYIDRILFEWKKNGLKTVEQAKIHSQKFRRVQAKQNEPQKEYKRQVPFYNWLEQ
In words: fluorescence polarisation; FP: 10 mM HEPES-KOH pH 7.5, 1 mM Mg acetate, 100 mM K glutamate, 20 C, 1.875 nM DNA, DnaD up to 500 nM, 10 min; Bpa crosslinking conditions not in material. The note with it: protein: recombinant; tags: His14-SUMO tag removed; label: fluorescein 5'.

The next data set concerns the target T5, DnaD F6A (Bacillus subtilis 168CA, UniProt P39787 1-232, F6A).
T5 sequence: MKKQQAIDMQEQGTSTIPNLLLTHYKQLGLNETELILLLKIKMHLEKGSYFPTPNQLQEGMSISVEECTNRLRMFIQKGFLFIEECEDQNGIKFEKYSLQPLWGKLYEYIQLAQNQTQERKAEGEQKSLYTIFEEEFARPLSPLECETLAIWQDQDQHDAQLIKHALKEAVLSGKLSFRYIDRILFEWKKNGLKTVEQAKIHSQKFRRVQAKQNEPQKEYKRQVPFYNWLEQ
Described as above. Conditions: protein: recombinant; tags: His14-SUMO tag removed; chain copies: 2; label: fluorescein 5'.

Data set [2] concerns the molecule itself. In words: SEC; Superdex 200 Increase 10/300GL, 4°C; 40 mM Tris-HCl pH 8, 500 mM NaCl, 1 mM EDTA, 20 mM imidazole; 500 μl samples.

As to CTCCTCCCCCTCCTCCCC (ssDNA) [TnnT spacing (oCW1493)], the binding result with DnaD is “binds”.

As for CTCCTCCTCCTCCCCCCC (ssDNA) [TnnT spacing (oCW1496)], the binding result with DnaD is on record as “binds”. On the same count and under the same terms, the same measure for CTCCTCCCTCCTCCCCCC (ssDNA) [TnnT spacing (oCW1495)]: “binds”. As to TTTTTTTTTT (ssDNA) [polyT(10) (oCW834)], in the data set with DnaD, the binding result was “no binding”. As for TTTTTTTTTTTTTTTTTTTTTTTTTTTTTTTTTTTTTTTT (ssDNA) [polyT(40) (oCW837)], the binding result with DnaD1-224 is “binds”; with DnaD1-205, “no binding”; in the data set with DnaD it was “binds”.

With CTCCTCCCCCCTCCTCCC (ssDNA) [TnnT spacing (oCW1492)], the binding result in the data set with DnaD was “binds”.

Take CTACTATTACTTCTACTA (ssDNA) [DRE (oCW1039)]: in the data set with DnaD, the binding result was “binds”.

B1: DnaD^1-205 (truncation lacking the entire C-terminal tail) (domain or fragment, Bacillus subtilis, UniProt P39787 1-205, looked up)
chain: MKKQQFIDMQEQGTSTIPNLLLTHYKQLGLNETELILLLKIKMHLEKGSYFPTPNQLQEGMSISVEECTNRLRMFIQKGFLFIEECEDQNGIKFEKYSLQPLWGKLYEYIQLAQNQTQERKAEGEQKSLYTIFEEEFARPLSPLECETLAIWQDQDQHDAQLIKHALKEAVLSGKLSFRYIDRILFEWKKNGLKTVEQAKIHSQK
notes: DnaD, Bacillus subtilis 168CA, residues 1-205; variant lacking the entire DnaD^CTT; made from pSF17; source: E. coli BL21(DE3)-pLysS, purified (HisTrap, His14-SUMO tag digested, second HisTrap flow-through)
Usually stoichiometry N stands for the number of molecules, sites or subunits per partner or assembly. Consider B1, for which the “stoichiometry N” value in data set [1] was 4. Regarding GTATTACCGCCTTTGAGTGA (ssDNA) [ssDNA 2 (oCW1124)], the binding result with DnaD is recorded as “binds”. On the same count and under the same terms, the same measure for CTCCTCCCCTCCTCCCCC (ssDNA) [TnnT spacing (oCW1494)]: “binds”; for TCACTCAAAGGCGGTAATAC (ssDNA) [ssDNA 1 (oCW1036)]: “binds”; for CTCCTCTCCTCCCCCCCC (ssDNA) [TnnT spacing (oCW1497)]: “binds”. Still for that read-out and setting: the same measure for CTCCTCCCCCCCTCCTCC (ssDNA) [TnnT spacing (oCW1491)]: “binds”; for TTTTTTTTTTTTTTT (ssDNA) [polyT(15) (oCW1029)]: “binds”.

As for CTCCTCCCCCCCCTCCTC (ssDNA) [polyC with two TnnT (oCW1128)], the binding result was “no binding” in the data set with DnaD L22A, “no binding” with DnaD F6A and “binds” with DnaD.

B2: DnaD^1-224 (truncation lacking the DnaB interaction region, the last eight residues) (domain or fragment, Bacillus subtilis, UniProt P39787 1-224, looked up)
chain: MKKQQFIDMQEQGTSTIPNLLLTHYKQLGLNETELILLLKIKMHLEKGSYFPTPNQLQEGMSISVEECTNRLRMFIQKGFLFIEECEDQNGIKFEKYSLQPLWGKLYEYIQLAQNQTQERKAEGEQKSLYTIFEEEFARPLSPLECETLAIWQDQDQHDAQLIKHALKEAVLSGKLSFRYIDRILFEWKKNGLKTVEQAKIHSQKFRRVQAKQNEPQKEYKRQV
notes: DnaD, Bacillus subtilis 168CA, residues 1-224; variant lacking the last eight amino acid residues of the DnaD^CTT; made from pSF17; source: E. coli BL21(DE3)-pLysS, purified (HisTrap, His14-SUMO tag digested, second HisTrap flow-through)
For B2, in data set [2], the “stoichiometry N” value came out at 4. On to CTCCTTCCTCCCCCCCCC (ssDNA) [TnnT juxtaposed (oCW1498)], for which, in the data set with DnaD, the binding result was “binds”.

The values are drawn from article PMC10201434, “The DNA replication initiation protein DnaD recognises a specific strand of the Bacillus subtilis chromosome origin” (Nucleic Acids Research, 2021).
